Results on 2 molecules are retold here after patent US20190359937A1 (INNOVATIVE TARGETING SOLUTIONS, published 2019).

For assay [1], the target named is T1, HER2 (as used for the affinity measurement) (UniProt P04626 23-652, limits assumed). The experiment in a line: affinity of the antibody for HER2; estimated to be several hundred nM, method not stated for this antibody.
Assay [2] has as its target T1, HER2 (as used for the affinity …). The experiment in a line: Biacore, antibody against HER2; format not stated. A general note: In SPR one partner is held on a chip, and binding of the other changes the refractive index at the surface.

B1: anti-HER2 antibody ITS001-V928 (antibody, V domains shown)
VH: QVQLVQSGAEVKKPGASVKVSCKASGYTFTSYGISWVRQAPGQGLEWMGWISAYNGNTNYAQKLQGRVTMTTDTSTSTAYMELRSLRSDDTAVYYCARELAYDAFDIWGQGTMVTVSS
VL: not shown
notes: The KD is told of the antibody before it was made into the IgG-TNFR1 receptor; also called ITS001-V928-based antibody; antibody of C644
What is called Kd is a measure of binding affinity in units of concentration. In the case of B1, in assay [1], the Kd is above 200 nM.

B2: anti-HER2 antibody ITS001-V737 (antibody, V domains shown)
VH: B1 VH
VL: DIQMTQSPSSLSASVGDRVTITCRASQSISSYLNWYQQKPGKAPKLLIYAASSQAGLSLQSGVPSRFSGSGSGTDFTLTISSLQPEDFATYYCQQSYSTPLTFGGGTKVEIKR
notes: The KD by Biacore is told of the antibody before it was made into the IgG-TNFR1 receptor; also called ITS001-V737-based antibody; antibody of C645
B2: in assay [2], binding was characterised by a dissociation constant (Kd) of 107 nM.
